Legend:
[1] = substrate: Nc1ncnc2c1ncn2[C@@H]1O[C@H](CO)[C@@H](O)[C@H]1O; test: stopped-flow absorbance Michaelis-Menten kinetics; assay type: biochemical, Bos taurus
[2] = substrate: Nc1ncnc2c([C@@H]3O[C@H](CO)[C@@H](O)[C@H]3O)snc12; test: stopped-flow fluorescence Michaelis-Menten kinetics; assay type: biochemical, Bos taurus

B1: adenosine deaminase (ADA) (Bos taurus) (protein)
chain: AQTPAFNKPKVELHVHLDGAIKPETILYYGRKRGIALPADTPEELQNIIGMDKPLSLPEFLAKFDYYMPAIAGCREAVKRIAYEFVEMKAKDGVVYVEVRYSPHLLANSKVEPIPWNQAEGDLTPDEVVSLVNQGLQEGERDFGVKVRSILCCMRHQPSWSSEVVELCKKYREQTVVAIDLAGDETIEGSSLFPGHVKAYAEAVKSGVHRTVHAGEVGSANVVKEAVDTLKTERLGHGYHTLEDATLYNRLRQENMHFEVCPWSSYLTGAWKPDTEHPVVRFKNDQVNYSLNTDDPLIFKSTLDTDYQMTKNEMGFTEEEFKRLNINAAKSSFLPEDEKKELLDLLYKAYGMPSPASAEQCL
Km [1]: 25.1 ± 3.2 µM | Km [2]: 18.8 ± 3.2 µM

Source: PMC6467514
